The values that follow come from PMC12947862, “Oligomerization enables the selective targeting of an intrinsically disordered region by a small molecule” (Science Advances, 2026).

Usually pKa stands for the pH at which an ionisable group is half protonated.

The target of data set [1] is EPI-001. As to the kind of experiment: 1H NMR chemical shift perturbation of EPI-001. As to conditions: 1 molar equivalent of the corresponding Tau-5* mutant; parent: est. -0.018; read off a plot.
The target of data set [2] is EPI-001. The experiment in a line: intact MS. As to conditions: t = 24 hours (last time point); parent: est. 21; read off a plot.
Data set [3] deals with the molecule itself. As to the kind of experiment: dynamic light scattering; NR ADs in 20 mM sodium phosphate pH 7.4, 1 mM TCEP, 0.5% DMSO-d6, 5°C; percentage population of monomer and high-order species; 35 μM AR AD; with and without EPI-001.
The next data set deals with Cys123 (position 123, …). As to the kind of experiment: NMR. The settings on record: 5 °C, 20 mM sodium phosphate, no added salt stated, 3 mM TCEP, 0.05% (w/v) NaN3, Reduced free thiol, intrinsically disordered fragments, no ligand. Protein concentrations were 70 μM Nt C123, 300 μM Tau-5* C404 and 150 μM Ct C518.
The target in the next data set is Cys518. The experiment in a line: NMR. As to conditions: 5 °C, 20 mM sodium phosphate, no added salt stated, 3 mM TCEP, 0.05% (w/v) NaN3, Reduced free thiol, intrinsically disordered fragments, no ligand. Protein concentrations were 70 μM Nt C123, 300 μM Tau-5* C404 and 150 μM Ct C518.
In data set [4] the target is Cys404 (UniProt position 406, …). As to the kind of experiment: NMR. The settings on record: 5 °C, 20 mM sodium phosphate, no added salt stated, 3 mM TCEP, 0.05% (w/v) NaN3, Reduced free thiol, intrinsically disordered fragments, no ligand. Protein concentrations were 70 μM Nt C123, 300 μM Tau-5* C404 and 150 μM Ct C518.

“AR AD fragment transactivation unit 5 (Tau-5*; residues 330 to 448) (from UniProt P10275) G394A; S395A; G407A”: the response with EPI-001 [1] was -0.042 p.p.m. Further, the other: EPI-001 adduct (%) with EPI-001 [2] turned out to be 26%.
Turning to “AR AD fragment transactivation unit 5 (Tau-5*; residues 330 to 448) (from UniProt P10275) L436P”, the response with EPI-001 [1] was -0.013 p.p.m.
Consider “AR AD fragment transactivation unit 5 (Tau-5*; residues 330 to 448) (from UniProt P10275) C404Y”, for which, in the data set with EPI-001 [1], the response is -0.021 p.p.m.
With “AR AD fragment transactivation unit 5 (Tau-5*; residues 330 to 448) (from UniProt P10275) noAro”, the response with EPI-001 [1] was -0.003 p.p.m.
For “AR AD fragment transactivation unit 5 (Tau-5*; residues 330 to 448) (from UniProt P10275) A398P”, the response with EPI-001 [1] was -0.012 p.p.m. In addition, in the data set with EPI-001 [2], the other: EPI-001 adduct (%) stood at 11%.
For “AR AD fragment transactivation unit 5 (Tau-5*; residues 330 to 448) (from UniProt P10275) Y393S; W397A; Y406S; H413A” the same measures were -0.006 p.p.m and 2.5%.
As to “AR AD fragment transactivation unit 5 (Tau-5*; residues 330 to 448) (from UniProt P10275) W433A; H434A; F437A”, in the data set with EPI-001 [1], the response is -0.008 p.p.m. The other: EPI-001 adduct (%) with EPI-001 [2] amounted to 9.3%.
“AR AD fragment transactivation unit 5 (Tau-5*; residues 330 to 448) (from UniProt P10275) G407A”: the response with EPI-001 [1] was -0.024 p.p.m.

B1: progesterone receptor activation domain (PR AD) (domain or fragment, human (from the printed UniProt entry), UniProt P06401 1-566, looked up)
chain: MTELKAKGPRAPHVAGGPPSPEVGSPLLCRPAAGPFPGSQTSDTLPEVSAIPISLDGLLFPRPCQGQDPSDEKTQDQQSLSDVEGAYSRAEATRGAGGSSSSPPEKDSGLLDSVLDTLLAPSGPGQSQPSPPACEVTSSWCLFGPELPEDPPAAPATQRVLSPLMSRSGCKVGDSSGTAAAHKVLPRGLSPARQLLLPASESPHWSGAPVKPSPQAAAVEVEEEDGSESEESAGPLLKGKPRALGGAAAGGGAAAVPPGAAAGGVALVPKEDSRFSAPRVALVEQDAPMAPGRSPLATTVMDFIHVPILPLNHALLAARTRQLLEDESYDGGAGAASAFAPPRSSPCASSTPVAVGDFPDCAYPPDAEPKDDAYPLYSDFQPPALKIKEEEEGAEASARSPRSYLVAGANPAAFPDFPLGPPPPLPPRATPSRPGEAAVTAAPASASVSSASSSGSTLECILYKAEGAPPQQGPFAPPPCKAPGASGCLLPRDGLPSTSASAAAAGAAPALYPALGLNGLPQLGYQAAVLKEGLPQVYPPYLNYLRPDSEASQSPQYSFESLPQKI
notes: source: E. coli Rosetta (DE3), purified from inclusion bodies (HisTrap in urea, SEC); not shown: His tag, N-terminal, cleaved
B1: the binding result in data set [3] was “binds”.

B2: Androgen receptor activation domain fragment Nt C123 (residues 1-151, C129S) (Homo sapiens; C129S) (protein)
chain: MEVQLGLGRVYPRPPSKTYRGAFQNLFQSVREVIQNPGPRHPEAASAAPPGASLLLLQQQQQQQQQQQQQQQQQQQQQETSPRQQQQQQGEDGSPQAHRRGPTGYLVLDEEQQPSQPQSALECHPERGSVPEPGAAVAASKGLPQQLPAPP
Consider B2, for which the pKa with Cys123 (position 123, …) was determined as 8.86 ± 0.03.

B3: mineralocorticoid receptor activation domain (MR AD) (domain or fragment, human (from the printed UniProt entry), UniProt P08235 1-602, looked up)
chain: METKGYHSLPEGLDMERRWGQVSQAVERSSLGPTERTDENNYMEIVNVSCVSGAIPNNSTQGSSKEKQELLPCLQQDNNRPGILTSDIKTELESKELSATVAESMGLYMDSVRDADYSYEQQNQQGSMSPAKIYQNVEQLVKFYKGNGHRPSTLSCVNTPLRSFMSDSGSSVNGGVMRAVVKSPIMCHEKSPSVCSPLNMTSSVCSPAGINSVSSTTASFGSFPVHSPITQGTPLTCSPNVENRGSRSHSPAHASNVGSPLSSPLSSMKSSISSPPSHCSVKSPVSSPNNVTLRSSVSSPANINNSRCSVSSPSNTNNRSTLSSPAASTVGSICSPVNNAFSYTASGTSAGSSTLRDVVPSPDTQEKGAQEVPFPKTEEVESAISNGVTGQLNIVQYIKPEPDGAFSSSCLGGNSKINSDSSFSVPIKQESTKHSCSGTSFKGNPTVNPFPFMDGSYFSFMDDKDYYSLSGILGPPVPGFDGNCEGSGFPVGIKQEPDDGSYYPEASIPSSAIVGVNSGGQSFHYRIGAQGTISLSRSARDQSFQHLSSFPPVNTLVESWKSHGDLSSRRSDGYPVLEYIPENVSSSTLRSVSTGSSRPSKI
notes: as for B1
With B3, in data set [3], the binding result is recorded as “binds”.

B4: glucocorticoid receptor activation domain (GR AD) (domain or fragment, human (from the printed UniProt entry), UniProt P04150 1-420, looked up)
chain: MDSKESLTPGREENPSSVLAQERGDVMDFYKTLRGGATVKVSASSPSLAVASQSDSKQRRLLVDFPKGSVSNAQQPDLSKAVSLSMGLYMGETETKVMGNDLGFPQQGQISLSSGETDLKLLEESIANLNRSTSVPENPKSSASTAVSAAPTEKEFPKTHSDVSSEQQHLKGQTGTNGGNVKLYTTDQSTFDILQDLEFSSGSPGKETNESPWRSDLLIDENCLLSPLAGEDDSFLLEGNSNEDCKPLILPDTKPKIKDNGDLVLSSPSNVTLPQVKTEKEDFIELCTPGVIKQEKLGTVYCQASFPGANIIGNKMSAISVHGVSTSGGQMYHYDMNTASLSQQQDQKPIFNVIPPIPVGSENWNRCQGSGDDNLTSLGTLNFPGRTVFSNGYSSPSMRPDVSSPPSSSSTATTGPPPKL
notes: as for B1
On to B4, for which, in data set [3], the binding result was “binds”.

B5: estrogen receptor alpha activation domain (ERα AD) (domain or fragment, human (from the printed UniProt entry), UniProt P03372 1-184, looked up)
chain: MTMTLHTKASGMALLHQIQGNELEPLNRPQLKIPLERPLGEVYLDSSKPAVYNYPEGAAYEFNAAAAANAQVYGQTGLPYGPGSEAAAFGSNGLGGFPPLNSVSPSPLMLLHPPPQLSPFLQPHGQQVPYYLENEPSGYTVREAGPPAFYRPNSDNRRQGGRERLASTNDKGSMAMESAKETRY
notes: as for B1
For the molecule B5, in data set [3], the binding result is reported as “binds”.

B6: Androgen receptor activation domain fragment Ct C518 (residues 441-558, 4G polyG, C448 deleted) (Homo sapiens; del448;del451-470) (protein)
chain: EGQLYGPGGGGEAGAVAPYGYTRPPQGLAGQESDFTAPDVWYPGGMVSRVPYPSPTCVKSEMGPWMDSYSGPYGDMRLETARDHVLPIDYYFPPQKT
With B6, the pKa with Cys518 came to 8.20 ± 0.08.

B7: Androgen receptor activation domain fragment Tau-5* C404 (residues 330-447, C448 deleted) (Homo sapiens; del448) (protein)
chain: AAGSSGTLELPSTLSLYKSGALDEAAAYQSRDYYNFPLALAGPPPPPPPPHPHARIKLENPLDYGSAWAAAAAQCRYGDLASLHGAGAAGPGSGSPSAAASSSWHTLFTAEEGQLYGP
Consider B7, for which, in data set [4], the pKa is 8.95 ± 0.05.
